From PMC8476643 (Nature Communications, 2021)

B1: 7D6 monoclonal antibody (antibody, V domains shown)
VH: EVQLQQSGAELVRPGASVKLSCTASGFNIKDTYIHWVKQRPEQGLEWIGRIDPGDGDTEYDPSFQGKATITADTSSNTAYLELSSLTSEDTAVYYCTRFYDYVDYGMDYWGQGTSVTVSS
VL: DIQMTQSPASLSASVGETVTITCRASGNIHNYLAWYQQKQGKSPQLLVYNAKTLADGVPSRFSGSGSGTQYSLKINSLQPEDFGSYYCQHFWSTPPWTFGGGTKLEVK
notes: also called mAb 7D6; source: mouse hybridoma, ascites, purified (protein A agarose); copies: 2 + 2
B2: 6D6 monoclonal antibody (antibody, V domains shown)
VH: EVQLQQSGAELVKPGASVKLSCTTSGFNIIDTYMHWVKQRPEEGLEWIGGIDPVNGNSEYDPKFQDKATITADTSSNTAYLHLSRLTSEDTAVYYCASAHYYGSSSSFPYWGQGTLVTVSA
VL: DIVMTQSQKFMSTSVGDRVSVTCKASQNVGTHVAWYQQKPGQSPKALIYSASYRYSGVPDRFTGSGVGTDFTLTITNVQSEDLAEYFCQQYNSYFTFGSGTKLEIK
notes: also called mAb 6D6; source: mouse hybridoma, ascites, purified (protein A agarose); copies: 2 + 2

Columns and labels:
[1] = target: T1, SARS-CoV-2 two-proline stabilized S trimer (S-2P) (SARS-CoV-2 Wuhan-Hu-1 (GenBank …, UniProt P0DTC2, stabilised)); test: SPR; settings: both partners purified
T1 construct: also called SARS-CoV-2 S-2P

[2] = target: T1, SARS-CoV-2 two-proline stabilized S …; test: SPR; settings: both partners purified; remark: listed apart in the source

Binder	Kd [1]	Kd [2]	koff [2]	kon [2]
B1	5.8 nM	5.89 nM	8.81e-05 s⁻¹	15200 M⁻¹ s⁻¹
B2	–	0.03 nM	4.2e-06 s⁻¹	123000 M⁻¹ s⁻¹
